Paper PMC3285366

Target: T1, Mps1(1–239) (human), P33981
T1 chain: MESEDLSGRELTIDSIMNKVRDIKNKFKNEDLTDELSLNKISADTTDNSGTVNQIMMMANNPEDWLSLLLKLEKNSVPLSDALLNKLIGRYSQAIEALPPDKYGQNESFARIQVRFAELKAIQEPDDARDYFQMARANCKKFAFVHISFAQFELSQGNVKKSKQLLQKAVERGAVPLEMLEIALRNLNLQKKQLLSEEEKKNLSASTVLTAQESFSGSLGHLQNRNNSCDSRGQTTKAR
Test: SEC
Details: remark: other sources report otherwise

B1: Mps1(1–239), P33981 1-239 (domain or fragment)
chain: MESEDLSGRELTIDSIMNKVRDIKNKFKNEDLTDELSLNKISADTTDNSGTVNQIMMMANNPEDWLSLLLKLEKNSVPLSDALLNKLIGRYSQAIEALPPDKYGQNESFARIQVRFAELKAIQEPDDARDYFQMARANCKKFAFVHISFAQFELSQGNVKKSKQLLQKAVERGAVPLEMLEIALRNLNLQKKQLLSEEEKKNLSASTVLTAQESFSGSLGHLQNRNNSCDSRGQTTKAR
Work on B1 yielded a stoichiometry N of 2.
